The target in the assay is HIS-PDZ1-2 protein (PSD-95 PDZ1-2 tandem) (human) (UniProt P78352). Description: fluorescence polarization, heterologous competition against AB143 probe.

One may read the Ki as the dissociation constant of the complex between target and ligand, obtained from inhibition or displacement. A low value points to higher affinity. Consider Tat-NR2B9c (peptide), for which the Ki came to 4.6 µM.

Source of the values: patent publication US20140094415A1.
